Data reported in PMC10513939, “Phylogenetic and functional analysis of cyanobacterial Cytochrome c 6-like proteins” (Frontiers in Plant Science, 2023).

T1: Cytochrome f (soluble form, subunit of the cytochrome b 6 f complex) (Nostoc sp. PCC 7119, UniProt Q93SW9 45-298, heme group; reduced for ITC)
T1 chain: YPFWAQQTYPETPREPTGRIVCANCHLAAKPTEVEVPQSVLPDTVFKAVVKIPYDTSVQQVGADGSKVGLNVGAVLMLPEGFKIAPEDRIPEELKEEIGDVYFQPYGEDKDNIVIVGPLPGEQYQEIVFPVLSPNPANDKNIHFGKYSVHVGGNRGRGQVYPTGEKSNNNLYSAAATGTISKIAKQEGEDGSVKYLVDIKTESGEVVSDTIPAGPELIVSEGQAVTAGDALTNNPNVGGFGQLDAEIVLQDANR

T2: Cytochrome f (soluble form, subunit of the cytochrome b 6 f complex) (Nostoc sp. PCC 7119, UniProt Q93SW9 45-298, heme group; reduced for ITC)
T2 construct: Cytochrome f, subunit of the cytochrome b6f complex, soluble form heterologously expressed; construct as described in earlier work (Albarran et al., 2005); PCC 7120; Soluble form: as far as I recall, the lumenal domain without the C-terminal membrane anchor and without the signal peptide; also called Cyt f; soluble Cyt f; source: E. coli co-transformed with pEC86, extracted from the periplasmic …
T2 sequence (looked up): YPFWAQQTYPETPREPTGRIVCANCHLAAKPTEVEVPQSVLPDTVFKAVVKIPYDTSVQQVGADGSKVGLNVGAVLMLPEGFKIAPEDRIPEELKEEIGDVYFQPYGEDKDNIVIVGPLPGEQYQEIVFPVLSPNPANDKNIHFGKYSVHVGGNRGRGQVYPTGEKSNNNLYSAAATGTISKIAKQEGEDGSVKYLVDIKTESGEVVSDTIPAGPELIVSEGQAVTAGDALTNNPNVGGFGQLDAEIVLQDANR


What was measured:
[1] = target: T1, Cytochrome f (soluble form, subunit of …); assay: ITC
[2] = target: T1, Cytochrome f (soluble form, subunit of …); assay: ITC
[3] = target: Cytochrome f (soluble form, subunit of the cytochrome b 6 f complex) (Nostoc sp. PCC 7119) (UniProt Q93SW9); assay: ITC; oxidised Cyt c 6, c 6BC or c 6D (400 uM) injected (2 uL injections) into reduced Cyt f (40 uM) in the cell; 5 mM phosphate buffer pH 7.5, 0.02% (w/v) Triton X-100, 25 °C; single binding site model
[4] = target: T2, Cytochrome f (soluble form, subunit of …); assay: as above; settings: both partners purified

Kd [1]	Ka [2]	fold higher KA and fold lower KD than for Cyt c 6 and Cyt c 6BC with Cyt f [3]	stoichiometry N [3]	stoichiometry N [4]	Binder
2 µM	500000 M⁻¹	6 fold	1		Cytochrome c 6D (natural protein, heme group; oxidised for ITC) AELPTGAKIFNNNCASCHIGGGNILISEKTLKKEALLKYLEDYETNSIQAIIHQIQYGKNAMPAFKDKLSTEEILEVAAYIFQKAEKDWSNLEKEG
13 µM	78000 M⁻¹			1	Cytochrome c 6 (natural protein, Nostoc sp. PCC 7119, UniProt P0A3X8 26-111, looked up, heme group; oxidised for ITC, Cytochrome c6 (petJ) of Nostoc sp; PCC 7119; also called Cyt c 6; source: E. coli co-transformed with pEC86, extracted from the periplasmic fraction, purified (ion exchange chromatography)) ADSVNGAKIFSANCASCHAGGKNLVQAQKTLKKADLEKYGMYSAEAIIAQVTNGKNAMPAFKGRLKPEQIEDVAAYVLGKADADWK
11 µM	89000 M⁻¹		1		Cytochrome c 6BC (natural protein, heme group; oxidised for ITC) ENTINGEQIFSVHCAGCHINGSNIIRRGKNLQKKTLKKYGMDSLEAIEAIVTNGKNNMSAYKDRLSEQEIQDVAAYVLEQAEKGWR
